According to US20240182536A1:
Where “and” joins values, the source holds several entries; their conditions need not be identical. Equal values may be shown once. Read-outs that look alike come from different tables or passages of the source. One block for each substance: values may come before it.

Key:
Test in all cases: cell-based or functional assay
[1] = target: IL-18 receptors on HEK-Blue IL-18 reporter cells (UniProt Q13478)
[2] = target: human IL-18 binding protein (human) (UniProt O95998)
[3] = target: interleukin 18 binding protein (IL-18BP) (UniProt O95998)
[4] = target: IL-18 receptors on HEK-Blue IL-18 reporter cells (UniProt Q13478); remark: listed apart in the source
[5] = target: human IL-18 binding protein (human) (UniProt O95998); remark: listed apart in the source
[6] = target: T1, IL-18 receptor (IL-18Rα and IL-18Rβ) (UniProt Q13478)
T1 sequence (looked up) 1: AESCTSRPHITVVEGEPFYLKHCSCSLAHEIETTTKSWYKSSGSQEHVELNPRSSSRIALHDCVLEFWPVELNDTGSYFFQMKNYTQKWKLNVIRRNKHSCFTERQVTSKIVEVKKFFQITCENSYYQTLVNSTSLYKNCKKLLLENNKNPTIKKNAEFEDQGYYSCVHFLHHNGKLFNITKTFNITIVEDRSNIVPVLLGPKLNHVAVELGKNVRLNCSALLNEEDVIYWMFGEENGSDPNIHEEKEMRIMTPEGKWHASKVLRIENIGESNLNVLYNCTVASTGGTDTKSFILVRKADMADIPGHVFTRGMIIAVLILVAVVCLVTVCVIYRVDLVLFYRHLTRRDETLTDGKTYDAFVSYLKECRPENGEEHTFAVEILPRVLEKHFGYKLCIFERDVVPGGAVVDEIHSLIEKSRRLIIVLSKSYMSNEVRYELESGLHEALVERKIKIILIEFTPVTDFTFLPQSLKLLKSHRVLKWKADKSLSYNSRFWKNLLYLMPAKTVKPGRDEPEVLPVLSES
T1 sequence (looked up) 2: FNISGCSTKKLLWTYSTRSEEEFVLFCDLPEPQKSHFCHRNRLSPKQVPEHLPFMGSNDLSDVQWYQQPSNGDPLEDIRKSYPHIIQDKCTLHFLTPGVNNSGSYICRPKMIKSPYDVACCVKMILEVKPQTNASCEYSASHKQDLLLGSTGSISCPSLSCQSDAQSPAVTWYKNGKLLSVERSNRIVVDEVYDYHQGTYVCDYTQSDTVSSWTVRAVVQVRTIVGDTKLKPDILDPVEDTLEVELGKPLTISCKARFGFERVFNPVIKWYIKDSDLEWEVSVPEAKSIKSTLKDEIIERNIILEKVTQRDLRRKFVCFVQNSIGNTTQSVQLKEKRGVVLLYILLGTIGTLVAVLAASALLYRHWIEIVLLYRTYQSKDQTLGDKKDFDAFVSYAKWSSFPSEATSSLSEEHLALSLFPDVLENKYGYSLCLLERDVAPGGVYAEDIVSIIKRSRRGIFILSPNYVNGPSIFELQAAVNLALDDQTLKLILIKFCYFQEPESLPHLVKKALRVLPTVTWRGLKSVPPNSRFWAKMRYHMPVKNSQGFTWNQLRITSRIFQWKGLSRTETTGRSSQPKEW

[7] = target: IL-18 binding protein (IL-18BP) (UniProt O95998)
IL-18 binding protein (IL-18BP), sequence (O95998 31-194 limits assumed): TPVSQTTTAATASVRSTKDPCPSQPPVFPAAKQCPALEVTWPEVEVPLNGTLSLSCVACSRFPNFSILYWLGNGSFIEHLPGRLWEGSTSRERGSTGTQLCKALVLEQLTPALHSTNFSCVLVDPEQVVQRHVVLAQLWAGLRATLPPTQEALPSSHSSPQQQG

interleukin 18 binding protein (IL-18BP), sequence (O95998 31-194 limits assumed): as above
human IL-18 binding protein (human), sequence (O95998 31-194 limits assumed): as above
WT-monoFc (Fc fusion), sequence (chain): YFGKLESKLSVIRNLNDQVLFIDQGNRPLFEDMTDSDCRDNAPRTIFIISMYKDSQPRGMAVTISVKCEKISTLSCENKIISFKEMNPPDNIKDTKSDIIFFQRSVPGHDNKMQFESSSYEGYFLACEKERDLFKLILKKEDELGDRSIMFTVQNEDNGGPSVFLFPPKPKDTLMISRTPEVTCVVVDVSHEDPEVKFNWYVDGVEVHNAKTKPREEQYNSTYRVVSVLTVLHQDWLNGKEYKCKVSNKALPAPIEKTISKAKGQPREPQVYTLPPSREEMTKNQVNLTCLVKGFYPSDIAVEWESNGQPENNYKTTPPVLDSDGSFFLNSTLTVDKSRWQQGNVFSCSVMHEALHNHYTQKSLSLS
WT-monoFc (wild-type human IL-18 linked to monoFc) (Fc fusion), sequence (chain): as above
WT-hIL-18-monoFc (Fc fusion), sequence (chain): as above

Substance: G3T/M60K-monoFc (Fc fusion)
HEK-blue EC50 (pM) - IL-18BP [1]: 0.21 pM
HEK-blue EC50 (pM) + 300 nM IL-18BP [2]: 1.78 pM

Substance: G3V/M60K-monoFc (Fc fusion)
HEK-blue EC50 (pM) - IL-18BP [1]: 0.15 pM
HEK-blue EC50 (pM) + 300 nM IL-18BP [2]: 1.57 pM

Substance: IL-18 variant S36E, D40A, N41M, K53T, S55Y, P107S (ligand)
HEK-Blue activity, No BP, DF-10000 [1]: 0.24
HEK-Blue activity, No BP, DF-100,000 [1]: 0.11
HEK-Blue activity, No BP, DF-1,000,000 [1]: 0.09
HEK-Blue activity, +100 nM BP, DF-10000 [3]: 0.25
HEK-Blue activity, +100 nM BP, DF-100,000 [3]: 0.11
HEK-Blue activity, +100 nM BP, DF-1,000,000 [3]: 0.09
Ratio (-BP/+BP), DF-10000 [3]: 0.97
Ratio (-BP/+BP), DF-100,000 [3]: 1.02
Ratio (-BP/+BP), DF-1,000,000 [3]: 1.01

Substance: WT-hIL-18-monoFc (Fc fusion)
HEK-blue EC50 (pM) - BP [4]: 0.495 pM
HEK-blue EC50 (pM) + 1000 nM BP [5]: 99.8 pM
HEK-Blue activity, No BP, DF-10000 [1]: 2.24
HEK-Blue activity, No BP, DF-100,000 [1]: 2.08
HEK-Blue activity, No BP, DF-1,000,000 [1]: 1.75
HEK-blue EC50 (pM) - BP [1]: 0.458 pM
HEK-blue EC50 (pM) - IL-18BP [1]: 0.29 pM
HEK-Blue activity, +100 nM BP, DF-10000 [2]: 0.92
HEK-Blue activity, +100 nM BP, DF-100,000 [2]: 0.29
HEK-Blue activity, +100 nM BP, DF-1,000,000 [2]: 0.24
HEK-blue EC50 (pM) + 300 nM BP [2]: 221 pM
HEK-blue EC50 (pM) + 300 nM IL-18BP [2]: > 500 pM
Ratio (-BP/+BP), DF-10000 [2]: 2.45
Ratio (-BP/+BP), DF-100,000 [2]: 7.16
Ratio (-BP/+BP), DF-1,000,000 [2]: 7.32

Substance: WT-monoFc (wild-type human IL-18 linked to monoFc) (Fc fusion)
EC50 (pM) - BP, HEK-blue re-screening [6]: 0.51 pM and 0.43 pM and 0.6 pM
EC50 (pM), PBMC IFN gamma assay [6]: 96.8 pM
EC50 (pM), PBMC IFN gamma assay, + 300 nM BP [3]: 611 pM
Ratio (HEK-blue EC50, + 100 nM BP against - BP) [3]: 520 and 360 and 338

Substance: hIL18(G3P, E6K, D54Y, S55P, T63S, N91S, R104Q)-monoFc (Fc fusion)
EC50 (pM), PBMC IFN gamma assay [6]: 19.5 pM
EC50 (pM), PBMC IFN gamma assay, + 300 nM BP [3]: 74.5 pM

Further lines, results first:

HEK-blue EC50 (pM) - IL-18BP [1]: 0.06 pM
HEK-blue EC50 (pM) + 300 nM IL-18BP [2]: 2.81 pM
Substance: G3T/E6K/K53A-monoFc (Fc fusion)

HEK-blue EC50 (pM) - IL-18BP [1]: 0.36 pM
HEK-blue EC50 (pM) + 300 nM IL-18BP [2]: 4.25 pM
Substance: G3T/M60K-HSA-his-avi

HEK-blue EC50 (pM) - IL-18BP [1]: 0.19 pM
HEK-blue EC50 (pM) + 300 nM IL-18BP [2]: 3.83 pM
Substance: G3V/M60K-HSA-his-avi

HEK-blue EC50 (pM) - BP [1]: 0.52 pM
HEK-blue EC50 (pM) + 300 nM BP [3]: > 500 pM
Ratio [3]: 947
Substance: WT-monoFc (Fc fusion)

Activity, +100 nM BP, DF-1000002 [7]: 2.01
Activity, +100 nM BP, DF-5000003 [7]: 1.95
Activity, +100 nM BP, DF-25000004 [7]: 1.59
Ratio (-BP/+BP), DF-1000005 [7]: 0.99
Ratio (-BP/+BP), DF-5000006 [7]: 0.98
Ratio (-BP/+BP), DF-25000007 [7]: 0.93
Activity, No BP, DF-100000 [1]: 2
Activity, No BP, DF-500000 [1]: 1.91
Activity, No BP, DF-2500000 [1]: 1.49
HEK-Blue activity, No BP, DF-10000 [1]: 2.19
HEK-Blue activity, No BP, DF-100,000 [1]: 2.26
HEK-Blue activity, No BP, DF-1,000,000 [1]: 2.16
HEK-Blue activity, +100 nM BP, DF-10000 [2]: 2.21
HEK-Blue activity, +100 nM BP, DF-100,000 [2]: 2.19
HEK-Blue activity, +100 nM BP, DF-1,000,000 [2]: 2.1
Ratio (-BP/+BP), DF-10000 [2]: 0.99
Ratio (-BP/+BP), DF-100,000 [2]: 1.03
Ratio (-BP/+BP), DF-1,000,000 [2]: 1.03
Substance: hDR-18-monoFc (Fc fusion)

EC50 (pM), PBMC IFN gamma assay [6]: 85.6 pM
EC50 (pM), PBMC IFN gamma assay, + 300 nM BP [3]: 64.1 pM
Substance: hIL18(G3P, E6K, D54Y, S55P, T63S, N91S, R104Q, Q154R)-monoFc (Fc fusion)

Activity, +100 nM BP, DF-1000002 [7]: 0.11
Activity, +100 nM BP, DF-5000003 [7]: 0.08
Activity, +100 nM BP, DF-25000004 [7]: 0.07
Ratio (-BP/+BP), DF-1000005 [7]: 17.4
Ratio (-BP/+BP), DF-5000006 [7]: 17.4
Ratio (-BP/+BP), DF-25000007 [7]: 10.5
Activity, No BP, DF-100000 [1]: 1.94
Activity, No BP, DF-500000 [1]: 1.43
Activity, No BP, DF-2500000 [1]: 0.77
Substance: wt-monoFc (from UniProt Q14116 37-193; P01857 119-327) (Fc fusion)
